Experimental data as given in publication PMC6025827 (Nature structural & molecular biology, 2018).

Target: the molecule itself
Experiment: crystal structure

B1: miTRPV2QM (minimal rabbit TRPV2 construct with the four point mutations F470S, L505M, L508T and Q528E) (domain or fragment)
chain: LNYRKGAGASQPDLNRFDRDRLFNVVARGNPEDLAGLLEYLRRTSKYLTDSEYTEGSTGKTCLMKAVLNLQDGVNACIQPLLEIDRDSGNPQPLVNAQCTDEYYRGHSALHIAIEKRSLQCVKLLVENGANVHAKACGHFFQKNQDTCFYFGELPLSLAACTKQWDVVNYLLENPHQPASLQAQDSLGNTVLHALVMIADDSAENSALVVRMYDGLLQAGARLCPNVQLEGIPNLEGLTPLKLAAKEGKIEIFKHILQREFSAPCQSLSRKFTEWCYGPVRVSLYDLASVDSWEENSVLEIIAFHSRSPHRHRMVVLEPLNKLLQAKWDRLIPRFCFNFLCYLVYMLIFTAVAYHQPALEKQGFPPLKATAGNSMLLLGHILILLGGVYLLLGQLWYFWRRRLFIWISFMDSYSEILFLLQALLTVLSQVLCFLAIEWYLPLLVSSLVMGWTNLLYYTRGFQHTGIYSVMIEKVILRDLLRFLLVYLVFLFGFAVALVSLSREAQDEAPPYRSILDASLELFKFTIGMGELAFQEQLRFRGVVLLLLLAYVLLTYVLLLNMLIALMSETVNSVATDSWSIWKLQKAISVLEMENGYWWCRRKKQRAGVMLTVGTRPDGSPDERWCFRVGEMNWATWEQTLPRTLC
- stoichiometry N: 4
